The supplement of paper PMC7877785
± gives the uncertainty stated by the source.

Assay: self-splicing fitness, log relative to wild type (ln ratio); higher = more splicing; Tetrahymena group I intron in knt gene, E. coli kanamycin selection, DiMSum; sequences stand for … in CUCUCU…GGAGGGAAAAGUUAUCAGGCAUGCACCUGGUAGCUAGUCUUUAAACCAAUAGAUUGCAUCGGUUUAAAAGGCAAGACCGUCAAAUUGCGGGAAAGGGGUCAACAGCCGUUCAGUACCAAGUCUCAGGGGAAACUUUGAGAUGGCCUUGCAAAGGGUAUGGUAAUAAGCUGACGGACAUGGUCCUAACCACGCAGCCAAGUCCUAAGUCAACAGAUCUUCUGUUGAUAUGGAUGCAGUUCACAGACUAAAUGUCGGUCGGGGAAGAUGUAUUCUUCUCAUAAGAUAUAGUCGGACCUCUCCUUAAUGGGAGCUAGCGGAUGAAGUGAUGCAACACUGGAGCCGCUGGGAACUAAUUUGUAUGCGAAAGUAUAUUGAUUAGUUUUGGAGUACUCGUGGUCG
In short: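 The eight P1ex-region nucleotides of an intron in the knt kanamycin-resistance gene on pET-22b(+) were all randomised and the library put into E. coli BL21(DE3). Six replicate transformations were grown overnight at 37°C or 30°C on LB agar with or without 25 μg/mL kanamycin, together with 100 μg/mL carbenicillin, 50 μM IPTG and 0.2% rhamnose. Colonies were pooled and amplicon-sequenced on an Illumina HiSeq 2500. Fitness from DiMSum is the error-weighted combination of wild-type-normalised replicate fold changes, kanamycin over none.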

Sequence	self-splicing fitness (ln) (30 °C)	self-splicing fitness (ln) (37 °C)
ACGUAGCAAUAUUACGAAUU	-1.42 ± 0.087	-0.778 ± 0.11
ACGUAGCAAUAUUACGAGAU	-2.82 ± 0.14	-2.23 ± 0.19
ACGUAGCAAUAUUACGAGUA	-3.15 ± 0.21	-1.07 ± 0.12
ACGUAGCAAUAUUACGAGUU	-4.04 ± 0.17	-1.3 ± 0.13
ACGUAGCAAUAUUACGAUCU	-0.0721 ± 0.051	0.356 ± 0.065
ACGUAGCAAUAUUACGAUGA	-0.81 ± 0.091	-0.268 ± 0.11
ACGUAGCAAUAUUACGCCCG	-0.224 ± 0.13	-0.474 ± 0.17
ACGUAGCAAUAUUACGCGAA	-1.46 ± 0.16	-0.935 ± 0.18
ACGUAGCAAUAUUACGCUAU	-4.59 ± 0.34	-3.11 ± 0.35
ACGUAGCAAUAUUACGGAGU	-3.1 ± 0.1	-1.18 ± 0.079
ACGUAGCAAUAUUACGGAUA	-2.48 ± 0.15	-0.584 ± 0.11
ACGUAGCAAUAUUACGGCAA	-1.49 ± 0.1	-1.15 ± 0.09
ACGUAGCAAUAUUACGGCCU	-0.463 ± 0.12	0.149 ± 0.13
ACGUAGCAAUAUUACGGGCC	-2.66 ± 0.14	-0.629 ± 0.12
ACGUAGCAAUAUUACGGGCG	-0.566 ± 0.19	-1.07 ± 0.19
ACGUAGCAAUAUUACGGUAG	-3.11 ± 0.15	-2.25 ± 0.2
ACGUAGCAAUAUUACGUAAA	-3.11 ± 0.28	-0.404 ± 0.19
ACGUAGCAAUAUUACGUAGG	-3.76 ± 0.18	-1.73 ± 0.13
ACGUAGCAAUAUUACGUCAU	-2.12 ± 0.17	-2.4 ± 0.3
ACGUAGCAAUAUUACGUUAA	-3.53 ± 0.25	-2.58 ± 0.2
ACGUAGCAAUAUUACGUUAC	-3.3 ± 0.23	-2.83 ± 0.26
ACGUAGCAAUAUUACGUUCA	-2.31 ± 0.13	-0.777 ± 0.12
ACUAAGCAAUAUUACGAAGA	-1.65 ± 0.17	-1.29 ± 0.18
ACUAAGCAAUAUUACGACAU	-0.431 ± 0.011	-0.0773 ± 0.032
ACUAAGCAAUAUUACGAGCU	-0.626 ± 0.079	-0.478 ± 0.087

Sequence	self-splicing fitness (ln) (30 °C)	self-splicing fitness (ln) (37 °C)
ACUAAGCAAUAUUACGAUUC	-2.12 ± 0.091	-0.397 ± 0.11
ACUAAGCAAUAUUACGCACU	-0.0279 ± 0.082	-0.417 ± 0.08
ACUAAGCAAUAUUACGCUGC	-2.57 ± 0.15	-2.17 ± 0.14
ACUAAGCAAUAUUACGCUGG	-2.82 ± 0.19	-2.93 ± 0.31
ACUAAGCAAUAUUACGCUUA	-2.54 ± 0.25	-2.83 ± 0.32
ACUAAGCAAUAUUACGUCAC	-3.64 ± 0.19	-2.91 ± 0.27
ACUAAGCAAUAUUACGUCCC	-1.43 ± 0.22	-1.07 ± 0.32
ACUAAGCAAUAUUACGUCGU	-3.51 ± 0.17	-1.16 ± 0.12
ACUAAGCAAUAUUACGUGAG	-0.615 ± 0.057	-0.636 ± 0.076
ACUAAGCAAUAUUACGUGGG	-2.98 ± 0.14	-2.81 ± 0.14
ACUAAGCAAUAUUACGUGUG	-2.18 ± 0.07	-1.06 ± 0.076
ACUAAGCAAUAUUACGUGUU	-3.63 ± 0.1	-2.2 ± 0.098
ACUAAGCAAUAUUACGUUGG	-2.95 ± 0.12	-1.73 ± 0.11
ACUCAGCAAUAUUACGACAU	-0.385 ± 0.011	0.0786 ± 0.032
ACUCAGCAAUAUUACGACUU	-0.301 ± 0.054	0.0543 ± 0.073
ACUCAGCAAUAUUACGAGGA	-1.67 ± 0.11	-0.591 ± 0.095
ACUCAGCAAUAUUACGAGUU	-4.72 ± 0.21	-2.36 ± 0.17
ACUCAGCAAUAUUACGAUUA	-0.552 ± 0.065	-0.431 ± 0.067
ACUCAGCAAUAUUACGCAUG	-2.09 ± 0.15	-2.23 ± 0.15
ACUCAGCAAUAUUACGCCCA	-1.42 ± 0.13	-0.482 ± 0.15
ACUCAGCAAUAUUACGCCUC	-0.758 ± 0.095	-1.13 ± 0.13
ACUCAGCAAUAUUACGGACA	-1.02 ± 0.1	-1.06 ± 0.12
ACUCAGCAAUAUUACGGACC	-0.551 ± 0.13	0.137 ± 0.14
ACUCAGCAAUAUUACGGAGU	-2.78 ± 0.11	-2.7 ± 0.18
ACUCAGCAAUAUUACGGAUC	-1.46 ± 0.1	-0.352 ± 0.11

Sequence	self-splicing fitness (ln) (30 °C)	self-splicing fitness (ln) (37 °C)
ACUCAGCAAUAUUACGGCAC	-1.24 ± 0.17	-0.799 ± 0.25
ACUCAGCAAUAUUACGGCGA	-1.41 ± 0.1	-0.93 ± 0.12
ACUCAGCAAUAUUACGUGAG	-1.55 ± 0.062	-0.663 ± 0.082
ACUCAGCAAUAUUACGUGCC	-0.982 ± 0.13	-0.189 ± 0.12
ACUCAGCAAUAUUACGUUGU	-3.45 ± 0.11	-2.23 ± 0.13
ACUGAGCAAUAUUACGAACG	-2.48 ± 0.17	-1.77 ± 0.21
ACUGAGCAAUAUUACGACAU	-2.109 ± 0.015	-1.12 ± 0.034
ACUGAGCAAUAUUACGACCU	-1.57 ± 0.11	-0.583 ± 0.13
ACUGAGCAAUAUUACGACGU	-1.53 ± 0.11	-1.66 ± 0.15
ACUGAGCAAUAUUACGAGAA	-2.33 ± 0.38	-1.96 ± 0.32
ACUGAGCAAUAUUACGAGGC	-3.07 ± 0.23	-2.59 ± 0.36
ACUGAGCAAUAUUACGAGUG	-3.1 ± 0.12	-2.76 ± 0.14
ACUGAGCAAUAUUACGAUGA	-1.9 ± 0.091	-1.59 ± 0.098
ACUGAGCAAUAUUACGAUGU	-2.83 ± 0.14	-2.67 ± 0.2
ACUGAGCAAUAUUACGCAGC	–	-1.7 ± 0.42
ACUGAGCAAUAUUACGCCGC	-3.95 ± 0.34	-1.23 ± 0.49
ACUGAGCAAUAUUACGCCGU	–	-2.31 ± 0.4
ACUGAGCAAUAUUACGCGCU	-3.03 ± 0.23	-2.1 ± 0.26
ACUGAGCAAUAUUACGCGUA	-1.8 ± 0.15	-3.16 ± 0.28
ACUGAGCAAUAUUACGCUAG	-1.72 ± 0.2	-3.23 ± 0.34
ACUGAGCAAUAUUACGGAAC	–	-1.92 ± 0.29
ACUGAGCAAUAUUACGGAAG	-2.52 ± 0.13	-1.21 ± 0.2
ACUGAGCAAUAUUACGGGCU	-3.34 ± 0.17	-2.92 ± 0.25
ACUGAGCAAUAUUACGUAGA	-3.68 ± 0.17	-2.51 ± 0.23
ACUGAGCAAUAUUACGUAUC	–	-2.99 ± 0.44

Sequence	self-splicing fitness (ln) (30 °C)	self-splicing fitness (ln) (37 °C)
ACUGAGCAAUAUUACGUCUA	–	-2.44 ± 0.25
ACUGAGCAAUAUUACGUCUC	-3.61 ± 0.2	-3.51 ± 0.33
ACUGAGCAAUAUUACGUCUU	-2.57 ± 0.13	-1.11 ± 0.12
ACUGAGCAAUAUUACGUGAA	-2.94 ± 0.17	-2.09 ± 0.17
ACUGAGCAAUAUUACGUGGC	-3.3 ± 0.22	-1.79 ± 0.25
ACUGAGCAAUAUUACGUGGG	-3.55 ± 0.21	-2.28 ± 0.16
ACUGAGCAAUAUUACGUGGU	-4.07 ± 0.14	-2.56 ± 0.13
ACUUAGCAAUAUUACGAAUA	–	-1.76 ± 0.31
ACUUAGCAAUAUUACGACCA	-0.584 ± 0.12	-1.01 ± 0.12
ACUUAGCAAUAUUACGAGCA	-1.2 ± 0.12	-0.129 ± 0.13
ACUUAGCAAUAUUACGAUGG	-2.19 ± 0.099	-1.16 ± 0.12
ACUUAGCAAUAUUACGAUUA	-1.05 ± 0.13	-1.55 ± 0.13
ACUUAGCAAUAUUACGCAGA	-2.32 ± 0.26	-0.913 ± 0.15
ACUUAGCAAUAUUACGCAUU	-1.27 ± 0.11	-1.47 ± 0.17
ACUUAGCAAUAUUACGCCAC	-3.2 ± 0.31	-3.59 ± 0.31
ACUUAGCAAUAUUACGCGCU	-0.535 ± 0.094	-0.305 ± 0.097
ACUUAGCAAUAUUACGCGUC	-3.62 ± 0.25	-1.83 ± 0.26
ACUUAGCAAUAUUACGCUCU	-0.715 ± 0.13	-0.397 ± 0.14
ACUUAGCAAUAUUACGGCAU	-1.01 ± 0.071	-0.0593 ± 0.088
ACUUAGCAAUAUUACGGGGU	-2.71 ± 0.16	-2.73 ± 0.27
ACUUAGCAAUAUUACGGUCA	-1.88 ± 0.15	-0.773 ± 0.15
ACUUAGCAAUAUUACGGUUU	-1.23 ± 0.11	-0.718 ± 0.16
